Biological target: T1, Fc-tagged human TSLP antigen (huTSLP-Fc) (human, biotin-labeled in the blocking assays)
T1 construct: whole entry named; also called recombinant human TSLP-Fc
Experiment: competition ELISA: blocks TSLP binding to TSLP receptor

Binder | IC50
hu199-24 (antibody, human IgG1, kappa, V domains shown, IgG1-YTE, kappa) VH: EVQLVQSGAEVKKPGASVKVSCKASGYTFTTYWMHWVKQAPGQGLEWIGMIDPSDSETTLIQKFKDKATLTVDKSTSTAYMELSSLRSEDTAVYYCARTLDGYYDYWGQGTTVTVSS VL: DIQMTQSPSSLSASVGDRVTITCRASENIYSYLAWYQQKPGKSPQLLVYFAKTLAEGVPSRFSGSVSGTQFTLTISSLQPEDFATYYCQHHYGTPWTFGGGTKVEIKR | 0.496 nM
hu199-25 (antibody, human IgG1, kappa, V domains shown, IgG1-YTE, kappa) VH: EVQLVQSGAEVKKPGASVKVSCKASGYTFTTYWMHWVKQAPGQGLEWMGMIDPSDSETTLIQKFKDKVTMTVDKSTSTAYMELSSLRSEDTAVYYCARTLDGYYDYWGQGTTVTVSS VL: DIQMTQSPSSLSASVGDRVTITCRASENIYSYLAWYQQKPGKAPKLLIYFAKTLAEGVPSRFSGSGSGTDFTLTISSLQPEDFATYYCQHHYGTPWTFGGGTKVEIKR | 0.246 nM
hu199-19 (antibody, human IgG1, kappa, V domains shown, IgG1-YTE, kappa) VH: EVQLVQSGAEVKKPGASVKVSCKASGYTFTTYWMHWVKQAPGQGLEWIGMIDPSDSETTLIQKFKDKATLTVDKSTSTAYMELSSLRSEDTAVYYCARTLDGYYDYWGQGTTVTVSS VL: DIQMTQSPSSLSASVGDRVTITCRASENIYSYLAWYQQKPGKAPKLLIYFAKTLAEGVPSRFSGSGSGTDFTLTISSLQPEDFATYYCQHHYGTPWTFGGGTKVEIKR | 0.658 nM
hu199-23 (antibody, human IgG1, kappa, V domains shown, IgG1-YTE, kappa) VH: EVQLVQSGAEVKKPGASVKVSCKASGYTFTTYWMHWVKQAPGQGLEWIGMIDPSDSETTLIQKFKDKATLTVDKSTSTAYMELSSLRSEDTAVYYCARTLDGYYDYWGQGTTVTVSS VL: DIQMTQSPSSLSASVGDRVTITCRASENIYSYLAWYQQKPGKAPKLLVYFAKTLAEGVPSRFSGSVSGTDFTLTISSLQPEDFATYYCQHHYGTPWTFGGGTKVEIKR | 0.337 nM
hu199-20 (antibody, human IgG1, kappa, V domains shown, IgG1-YTE, kappa) VH: EVQLVQSGAEVKKPGASVKVSCKASGYTFTTYWMHWVKQAPGQGLEWIGMIDPSDSETTLIQKFKDKATLTVDKSTSTAYMELSSLRSEDTAVYYCARTLDGYYDYWGQGTTVTVSS VL: DIQMTQSPSSLSASVGDRVTITCRASENIYSYLAWYQQKPGKAPKLLVYFAKTLAEGVPSRFSGSGSGTDFTLTISSLQPEDFATYYCQHHYGTPWTFGGGTKVEIKR | 0.4 nM
hu199-26 (antibody, human IgG1, kappa, V domains shown, IgG1-YTE, kappa) VH: EVQLVQSGAEVKKPGASVKVSCKASGYTFTTYWMHWVKQAPGQGLEWMGMIDPSDSETTLIQKFKDKVTMTVDKSTSTAYMELSSLRSEDTAVYYCARTLDGYYDYWGQGTTVTVSS VL: DIQMTQSPSSLSASVGDRVTITCRASENIYSYLAWYQQKPGKAPKLLVYFAKTLAEGVPSRFSGSGSGTDFTLTISSLQPEDFATYYCQHHYGTPWTFGGGTKVEIKR | 0.365 nM

Further binders by falling IC50, results first:

IC50 | Binder
0.535 nM | hu199-21 (antibody, human IgG1, kappa, V domains shown, IgG1-YTE, kappa) VH: EVQLVQSGAEVKKPGASVKVSCKASGYTFTTYWMHWVKQAPGQGLEWIGMIDPSDSETTLIQKFKDKATLTVDKSTSTAYMELSSLRSEDTAVYYCARTLDGYYDYWGQGTTVTVSS VL: DIQMTQSPSSLSASVGDRVTITCRASENIYSYLAWYQQKPGKSPQLLVYFAKTLAEGVPSRFSGSGSGTQFTLTISSLQPEDFATYYCQHHYGTPWTFGGGTKVEIKR
0.481 nM | hu199-18 (antibody, human IgG1, kappa, V domains shown, IgG1-YTE, kappa) VH: EVQLVQSGAEVKKPGASVKVSCKASGYTFTTYWMHWVRQAPGQGLEWIGMIDPSDSETTLIQKFKDRATLTVDKSTSTAYMELSSLRSEDTAVYYCARTLDGYYDYWGQGTTVTVSS VL: DIQMTQSPSSLSASVGDRVTITCRASENIYSYLAWYQQKPGKSPQLLVYFAKTLAEGVPSRFSGSVSGTQFTLTISSLQPEDFATYYCQHHYGTPWTFGGGTKVEIKR
0.345 nM | hu199-22 (antibody, human IgG1, kappa, V domains shown, IgG1-YTE, kappa) VH: EVQLVQSGAEVKKPGASVKVSCKASGYTFTTYWMHWVKQAPGQGLEWIGMIDPSDSETTLIQKFKDKATLTVDKSTSTAYMELSSLRSEDTAVYYCARTLDGYYDYWGQGTTVTVSS VL: DIQMTQSPSSLSASVGDRVTITCRASENIYSYLAWYQQKPGKAPKLLIYFAKTLAEGVPSRFSGSVSGTDFTLTISSLQPEDFATYYCQHHYGTPWTFGGGTKVEIKR

— patent publication US20240016931A1 (JIANGSU HENGRUI PHARMACEUTICALS, published 2024)
